Measured values reported in paper PMC5993284, “Peptide inhibitors of the anaphase promoting-complex that cause sensitivity to microtubule poison” (PLoS ONE, 2018).
“Also recorded” adds a separate entry of the source. Ends that are not written are not given here. * marks the point of attachment. Biotin = O=C1N[C@H]2[C@H](CS[C@H]2CCCCC(=O)*)N1

How the values were obtained:
[1] = tested on: budding yeast Saccharomyces cerevisiae cells; assay: Benomyl sensitivity upon over expression in vivo (colony numbers per plate); type: cell-based; settings: for benomyl sensitivity on over expression (in words): pGAL1-10 over expression with N-terminal NLS, 12.5 μg/mL benomyl, average colony numbers per plate, 5 replicates; for effect of over expression on colony number without benomyl (in words): pGAL1-10 over expression, galactose, no benomyl
Procedure: For the production of high quality DNA for in vitro transcription/translation E. coli were grown in 50 mL LB containing 100 μg/mL ampicillin for 12–16 hours at 37 °C. Purified plasmid DNA, which was dissolved with 50 μL ddH2O or DEPC (diethyl pyrocarbonate)-treated water, was measured at OD260/280 and stored at -20 °C (Bioman, Inc., Taiwan). All mutant allele expression plasmids were constructed employing site-directed mutagenesis following the manufacturer’s protocol (Stratagene, USA). Yeast were cultured under standard conditions. For large-scale yeast cultures to purify APC/C, yeast were cultured overnight in 10 mL YPD medium (20 g Dextrose, 20 g peptone, and 10 g yeast extract per liter) at 30 °C. 1.5 L of YPD medium in two Fernbach flasks was inoculated with 1 mL overnight culture and supplemented with 100 μg/mL ampicillin and 100 μg/mL streptomycin to prevent bacterial growth. Cell cycle arrest, collection of yeast cells and yeast cell extractions were all performed as previously described.
There is a long-term interest in identifying APC/C inhibitors that give rise to sensitivity to microtubule poisons in vivo. To determine if a Cdc20 Mad2-binding motif peptide was sufficient to induce a microtubule poison sensitivity phenotype in vivo, the DQ36 and PQ65 peptides were over expressed under the control of a galactose inducible pGAL1-10 promoter that had been integrated as single copy into the yeast genome together with the peptide open reading frames (ORF). The expressed proteins were engineered to contain an N-terminal nuclear localization signal ([…]) along with a short amino acid ‘linker’ in order to target the nuclear pool of the APC/C because yeast undergo a closed mitosis without nuclear envelope breakdown. […] This phenotype was suppressed by mutating the yeast KILR-motif residues RILQY to AAAAA (Fig 7B) providing a direct correlation between our observed in vitro APC/C inhibition that requires the yeast KILR-motif RILQY residues and an in vivo microtubule poison sensitivity phenotype.

[2] = tested on: APC/C - co-factor Cdc20 interaction; assay: Co-factor Cdc20 binding to APC/C (35S-Cdc20, APC/C on IgG beads); design: species or system Saccharomyces cerevisiae; settings: 220 μM peptide, 1 hour, n = 3, vs buffer only
Procedure: (§1) One potential mechanism by which Cdc20-derived peptides and Tyc1 inhibit APC/C may be by blocking and/or disrupting the association between the co-factors Cdc20 and Cdh1 and the APC/C holo-enzyme. To test this hypothesis we produced radio-labeled full-length Cdc20 and Cdh1 co-factors by IVT/T and then incubated them with 220 μM Tyc1, DQ36 or PQ65 and APC/C that had been isolated from mitotic yeast extracts on IgG beads. Unbound peptide was washed away, and the amount of the remaining APC/C bound Cdc20 or Cdh1 was quantified. […] These observations indicate that Tyc1 and Mad2-binding motif peptides inhibit APC/C via a similar mechanism, leading to the disruption of the co-factor-APC/C interaction. This similar mechanism of action predicts that co-ever expression of Tyc1 and a Mad2-binding motif peptide in vivo would likely increase a cell’s sensitivity to microtubule poison.
(§2) Fig 14 Mad2-binding motif peptides and Tyc1 disrupt co-factor binding to APC/C and display an additive phenotype for microtubule poison sensitivity when co-ever expressed. A) ^35S-Methionine radio-labeled full-length Cdc20 or Cdh1 were made by IVT/T and pre-incubated with buffer only as a control, or Tyc1, DQ36 or PQ65 at a final concentration of 220 μM. […] The amount of APC/C-bound co-factor was measured by phosphor-imaging (n = 3). […]

[3] = tested on: APC/C - co-factor Cdh1 interaction; assay: Co-factor Cdh1 binding to APC/C (35S-Cdh1, APC/C on IgG beads); design: species or system Saccharomyces cerevisiae; settings: 220 μM peptide, 1 hour, n = 3, vs buffer only
Procedure: as §1, §2

## DQ36-mut1: DQ36-mut1 where all 5 RILQY residues were changed to alanine AAAAA (Biotin-DMNKAAAAAMPEPPKCSSLRQKSYIMKKRTHYSYQQ)
[1]
  benomyl sensitivity on over expression (in words): The benomyl sensitivity phenotype was not observed
  effect of over expression on colony number without benomyl (in words): no significant difference in colony numbers per plate in the absence of benomyl

B1: PQ65: 65 amino acid residue peptide called PQ65 (Cdc20 169–232) (peptide, UniProt P26309 169-232, looked up, fragment)
chain: PPNASPISHLRAQTKIVFKQNVAEACGLDMNKRILQYMPEPPKCSSLRQKSYIMKKRTHYSYQQ
[1]
  benomyl sensitivity on over expression (in words): induced a significant sensitivity to benomyl; also recorded: leads to sensitivity to the microtubule poison benomyl
  effect of over expression on colony number without benomyl (in words): no change in colony number or colony morphology was observed; also recorded: no significant difference in colony numbers per plate in the absence of benomyl
[2]
  amount of APC/C bound co-factor Cdc20 (in words): caused a significant decrease in the amount of APC/C bound co-factor Cdc20 and Cdh1
[3]
  amount of APC/C bound co-factor Cdh1 (in words): caused a significant decrease in the amount of APC/C bound co-factor Cdc20 and Cdh1
